Patent US20190233493A1 (Sanofi, published 2019)
*1 amine or outer side, *2 acyl side, *3 side chain or, on linkers, in order; H or OH if unused. Primed or numbered codes have the meaning given here. Side-chain parts run from the residue outwards. [ ]: non-standard residue; d: D form. The star is where a group is joined. γGlu = O=C(O)[C@H](CCC(=O)[*:2])N[*:1]; Stearoyl = CCCCCCCCCCCCCCCCCC(=O)*; Palmitoyl = CCCCCCCCCCCCCCCC(=O)*; Nle = CCCC[C@H](N)C(=O)O; PEG2′ = PEG2 spacer unit; Aib = CC(C)(N)C(=O)O

B1: peptide of SEQ ID NO: 5 (peptide)
peptide: Ac-LEGREKVRAQI[Aib][Aib]EGMSTWS[Aib]RK([γGlu-γGlu-Palmitoyl])-NH2
SMILES: CCCCCCCCCCCCCCCC(=O)N[C@@H](CCC(=O)N[C@@H](CCC(=O)NCCCC[C@H](NC(=O)[C@H](CCCNC(=N)N)NC(=O)C(C)(C)NC(=O)[C@H](CO)NC(=O)[C@H](Cc1c[nH]c2ccccc12)NC(=O)[C@@H](NC(=O)[C@H](CO)NC(=O)[C@H](CCSC)NC(=O)CNC(=O)[C@H](CCC(=O)O)NC(=O)C(C)(C)NC(=O)C(C)(C)NC(=O)[C@@H](NC(=O)[C@H](CCC(N)=O)NC(=O)[C@H](C)NC(=O)[C@H](CCCNC(=N)N)NC(=O)[C@@H](NC(=O)[C@H](CCCCN)NC(=O)[C@H](CCC(=O)O)NC(=O)[C@H](CCCNC(=N)N)NC(=O)CNC(=O)[C@H](CCC(=O)O)NC(=O)[C@H](CC(C)C)NC(C)=O)C(C)C)[C@@H](C)CC)[C@@H](C)O)C(N)=O)C(=O)O)C(=O)O
B2: peptide of SEQ ID NO: 1 (peptide)
peptide: Ac-LEGREKVRAAI[Aib][Aib]EG[Nle]STWS[Aib]RKK(Palmitoyl)-NH2
SMILES: CCCCCCCCCCCCCCCC(=O)NCCCC[C@H](NC(=O)[C@H](CCCCN)NC(=O)[C@H](CCCNC(=N)N)NC(=O)C(C)(C)NC(=O)[C@H](CO)NC(=O)[C@H](Cc1c[nH]c2ccccc12)NC(=O)[C@@H](NC(=O)[C@H](CO)NC(=O)[C@H](CCCC)NC(=O)CNC(=O)[C@H](CCC(=O)O)NC(=O)C(C)(C)NC(=O)C(C)(C)NC(=O)[C@@H](NC(=O)[C@H](C)NC(=O)[C@H](C)NC(=O)[C@H](CCCNC(=N)N)NC(=O)[C@@H](NC(=O)[C@H](CCCCN)NC(=O)[C@H](CCC(=O)O)NC(=O)[C@H](CCCNC(=N)N)NC(=O)CNC(=O)[C@H](CCC(=O)O)NC(=O)[C@H](CC(C)C)NC(C)=O)C(C)C)[C@@H](C)CC)[C@@H](C)O)C(N)=O
B3: peptide of SEQ ID NO: 6 (peptide)
peptide: Ac-ELEGREKVRAAI[Aib][Aib]EG[Nle]STWS[Aib]RKKK([γGlu-γGlu-γGlu-Palmitoyl])-NH2
SMILES: CCCCCCCCCCCCCCCC(=O)N[C@@H](CCC(=O)N[C@@H](CCC(=O)N[C@@H](CCC(=O)NCCCC[C@H](NC(=O)[C@H](CCCCN)NC(=O)[C@H](CCCCN)NC(=O)[C@H](CCCNC(=N)N)NC(=O)C(C)(C)NC(=O)[C@H](CO)NC(=O)[C@H](Cc1c[nH]c2ccccc12)NC(=O)[C@@H](NC(=O)[C@H](CO)NC(=O)[C@H](CCCC)NC(=O)CNC(=O)[C@H](CCC(=O)O)NC(=O)C(C)(C)NC(=O)C(C)(C)NC(=O)[C@@H](NC(=O)[C@H](C)NC(=O)[C@H](C)NC(=O)[C@H](CCCNC(=N)N)NC(=O)[C@@H](NC(=O)[C@H](CCCCN)NC(=O)[C@H](CCC(=O)O)NC(=O)[C@H](CCCNC(=N)N)NC(=O)CNC(=O)[C@H](CCC(=O)O)NC(=O)[C@H](CC(C)C)NC(=O)[C@H](CCC(=O)O)NC(C)=O)C(C)C)[C@@H](C)CC)[C@@H](C)O)C(N)=O)C(=O)O)C(=O)O)C(=O)O

Biological target: T1, RXFP1 receptor (UniProt Q9HBX9 1-757, limits assumed)
T1 sequence (looked up): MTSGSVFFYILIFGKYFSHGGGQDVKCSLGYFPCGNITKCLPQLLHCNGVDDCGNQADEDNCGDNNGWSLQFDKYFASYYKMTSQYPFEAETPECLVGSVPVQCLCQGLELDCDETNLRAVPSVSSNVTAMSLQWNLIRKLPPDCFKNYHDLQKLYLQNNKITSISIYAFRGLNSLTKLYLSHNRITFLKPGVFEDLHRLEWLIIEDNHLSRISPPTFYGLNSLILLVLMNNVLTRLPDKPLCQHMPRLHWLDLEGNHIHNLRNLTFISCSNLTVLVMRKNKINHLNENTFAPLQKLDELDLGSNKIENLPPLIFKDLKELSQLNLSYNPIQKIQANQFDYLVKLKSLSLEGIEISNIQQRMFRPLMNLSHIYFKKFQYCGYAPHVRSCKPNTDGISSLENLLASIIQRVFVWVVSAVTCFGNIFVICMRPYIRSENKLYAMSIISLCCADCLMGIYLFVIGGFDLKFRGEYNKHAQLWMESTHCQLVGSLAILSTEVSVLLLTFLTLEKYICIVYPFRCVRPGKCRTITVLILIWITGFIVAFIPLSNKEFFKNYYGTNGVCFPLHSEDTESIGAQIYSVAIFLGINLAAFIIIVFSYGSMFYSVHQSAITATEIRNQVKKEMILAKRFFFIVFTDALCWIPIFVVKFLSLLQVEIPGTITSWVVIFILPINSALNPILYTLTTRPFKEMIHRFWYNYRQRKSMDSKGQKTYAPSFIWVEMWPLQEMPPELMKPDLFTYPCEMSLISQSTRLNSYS
Assay: cell-based or functional assay

Binder | EC50 (nM), OVCAR 5 cells (cAMP) [nM] | EMax, OVCAR 5 cells (cAMP) [%]
Ac-LEGREKVRAQI[Aib][Aib]EG[Nle]STWS[Aib]RKK(Ac)K([PEG2′-PEG2′-PEG2′-Stearoyl])-NH2 [peptide of SEQ ID NO: 52] | 56 | 98
B1 | 86.8 | 105
Ac-LEGREKVRAK(Ac)I[Aib][Aib]EG[Nle]STWS[Aib]RKK(Ac)K([PEG2′-PEG2′-γGlu-γGlu-γGlu-Palmitoyl])-NH2 [peptide of SEQ ID NO: 62] | 1.14 | 87
Ac-LEGREKVRAQI[Aib][Aib]EG[Nle]STWS[Aib]RKK([PEG2′-PEG2′-γGlu-γGlu-γGlu-Palmitoyl])-NH2 [peptide of SEQ ID NO: 58] | 14.8 | 83
Ac-LEGREKVRAQI[Aib][Aib]EG[Nle]STWS[Aib]RKK([PEG2′-Palmitoyl])-NH2 [peptide of SEQ ID NO: 50] | 75.9 | 95
Ac-ELEGREKVRAAI[Aib][Aib]EG[Nle]STWS[Aib]RKK([PEG2′-PEG2′-γGlu-γGlu-Palmitoyl])-NH2 [peptide of SEQ ID NO: 57] | 4.4 | 93
Ac-LEGREKVRAK(Ac)I[Aib][Aib]EG[Nle]STWS[Aib]RKK([PEG2′-PEG2′-γGlu-γGlu-γGlu-Palmitoyl])-NH2 [peptide of SEQ ID NO: 59] | 28.2 | 85
Ac-LEGREKVRAK(Ac)I[Aib][Aib]EGK(Ac)STWS[Aib]RKKK([PEG2′-PEG2′-γGlu-γGlu-γGlu-Palmitoyl])-NH2 [peptide of SEQ ID NO: 61] | 0.17 | 93
B2 | 85.3 | 85
Ac-ELEGREKVRAAI[Aib][Aib]EG[Nle]STWS[Aib]RKK([PEG2′-γGlu-γGlu-Palmitoyl])-NH2 [peptide of SEQ ID NO: 54] | 18.6 | 98
B3 | 18 | 100
Ac-LEGREKVRAK(Ac)I[Aib][Aib]EG[Nle]STWS[Aib]RKKK([PEG2′-PEG2′-γGlu-γGlu-γGlu-Palmitoyl])-NH2 [peptide of SEQ ID NO: 60] | 0.11 | 91
Ac-LEGREKVRAQI[Aib][Aib]EG[Nle]STWS[Aib]RKK([PEG2′-γGlu-Palmitoyl])-NH2 [peptide of SEQ ID NO: 53] | 15.3 | 97
Ac-LEGREKVRAQI[Aib][Aib]EG[Nle]STWS[Aib]RKKK([PEG2′-PEG2′-γGlu-Stearoyl])-NH2 [peptide of SEQ ID NO: 56] | 0.51 | 95
Ac-LEGREKVRAQI[Aib][Aib]EG[Nle]STWS[Aib]RKK([PEG2′-γGlu-γGlu-γGlu-Palmitoyl])-NH2 [peptide of SEQ ID NO: 55] | 19.3 | 94
Ac-LEGREKVRAQI[Aib][Aib]EG[Nle]STWS[Aib]RKK(Ac)K([PEG2′-PEG2′-Stearoyl])-NH2 [peptide of SEQ ID NO: 51] | 71.2 | 100
